These results are taken from publication PMC10512346, “Cleavage of α-1,4-glycosidic linkages by the glycosylphosphatidylinositol-anchored α-amylase AgtA decreases the molecular weight of cell wall α-1,3-glucan in Aspergillus oryzae” (Frontiers in Fungal Biology, 2023).

The term Km denotes the substrate concentration at which the rate is half of its maximum. In general, Vmax refers to the rate approached at saturating substrate. The kcat is the number of substrate molecules converted per active site and unit of time at saturation. A word on the kcat/Km: it is the second-order rate constant that governs catalysis at low substrate concentration.

What all share (assay): purified protein
Holding throughout (assay type): biochemical, Aspergillus oryzae

Substrate in data set [1]: O=[N+]([O-])c1ccc(O[C@H]2O[C@H](CO)[C@@H](O[C@H]3O[C@H](CO)[C@@H](O[C@H]4O[C@H](CO)[C@@H](O[C@H]5O[C@H](CO)[C@@H](O[C@H]6O[C@H](CO)[C@@H](O)[C@H](O)[C@H]6O)[C@H](O)[C@H]5O)[C@H](O)[C@H]4O)[C@H](O)[C@H]3O)[C@H](O)[C@H]2O)cc1
To be noted: 50 mM sodium acetate pH 5.5, 40°C, apparent value, hydrolysis plus transglycosylation, 1.6–100 mM substrate.

Substrate in data set [2]: O=[N+]([O-])c1ccc(O[C@H]2O[C@H](CO)[C@@H](O[C@H]3O[C@H](CO)[C@@H](O[C@H]4O[C@H](CO)[C@@H](O[C@H]5O[C@H](CO)[C@@H](O[C@H]6O[C@H](CO)[C@@H](O[C@H]7O[C@H](CO)[C@@H](O[C@H]8O[C@H](CO)[C@@H](O)[C@H](O)[C@H]8O)[C@H](O)[C@H]7O)[C@H](O)[C@H]6O)[C@H](O)[C@H]5O)[C@H](O)[C@H]4O)[C@H](O)[C@H]3O)[C@H](O)[C@H]2O)cc1
The conditions noted are these: 50 mM sodium acetate pH 5.5, 40°C, apparent value, hydrolysis plus transglycosylation, 1.6–50 mM substrate.

Substrate in data set [3]: O=[N+]([O-])c1ccc(O[C@H]2O[C@H](CO)[C@@H](O[C@H]3O[C@H](CO)[C@@H](O[C@H]4O[C@H](CO)[C@@H](O[C@H]5O[C@H](CO)[C@@H](O[C@H]6O[C@H](CO)[C@@H](O[C@H]7O[C@H](CO)[C@@H](O[C@H]8O[C@H](CO)[C@@H](O[C@H]9O[C@H](CO)[C@@H](O)[C@H](O)[C@H]9O)[C@H](O)[C@H]8O)[C@H](O)[C@H]7O)[C@H](O)[C@H]6O)[C@H](O)[C@H]5O)[C@H](O)[C@H]4O)[C@H](O)[C@H]3O)[C@H](O)[C@H]2O)cc1
The conditions noted are these: 50 mM sodium acetate pH 5.5, 40°C, apparent value, hydrolysis plus transglycosylation, 1.6–25 mM substrate.

Substrate in data set [4]: O=[N+]([O-])c1ccc(O[C@H]2O[C@H](CO)[C@@H](O[C@H]3O[C@H](CO)[C@@H](O[C@H]4O[C@H](CO)[C@@H](O[C@H]5O[C@H](CO)[C@@H](O[C@H]6O[C@H](CO)[C@@H](O[C@H]7O[C@H](CO)[C@@H](O)[C@H](O)[C@H]7O)[C@H](O)[C@H]6O)[C@H](O)[C@H]5O)[C@H](O)[C@H]4O)[C@H](O)[C@H]3O)[C@H](O)[C@H]2O)cc1
The conditions noted are these: 50 mM sodium acetate pH 5.5, 40°C, apparent value, hydrolysis plus transglycosylation, 1.6–50 mM substrate.

B1: rAoAgtA (Aspergillus oryzae RIB40) (protein)
chain: ATTAEWKSRSVYQTMTDRFARTDGSTTAPCNTTQGLYCGGTWRGTIDKLDYIQGMGFDAVMISPIVENIEGRVSYGEAYHGYWPLDLYSLNSHFGTHQDLLDLSEALHSRGMYLMMDTVINNMAYMTNGKDPAKNIDYSVFTPFNDSSYFHPYCKITDWNNYTNAQLCQTGDDKVALPDLFTEHEDVQQILEKWAKEIISTYSIDGLRIDAAKHVNPGFLKNFGDAIGAFMTGEVLQQEVDTICKYQNNYIGSVPNYPIYYSVLKAFTLGNTTDLANQVEIMKNSCDDVTALASFSENHDVARFASMTDDMALAKNVLTFTILYDGVPMIYQGQEQHLDGPGTPDNREAIWLTKYNTDAELYKLIAKLNTIRKHAYKLDPNYVSLQTYPIFRGGSELGFRKGVEGRQVVMLLSTQGSNSSAYNLTLPVSFNGGVQVMDVLNCVNYTVNPQSELIVPMDKGEPRVFFPTSLMPGSGLCGYTTANVSFVELKTKGAA
notes: residues 24-518 of 549 (signal peptide 1-23 and C-terminal GPI-anchor region removed), C-terminal PGGGS linker and His6 tag; secreted from Pichia pastoris SMD1168H with alpha-factor signal
With B1, in “purified protein [1]”, the Km is given as 61.8 mM, the Vmax amounted to 659 µM/min, the kcat was found to be 60 s⁻¹ and the kcat/Km was found to be 970 M⁻¹ s⁻¹. In “purified protein [2]”, the Km was found to be 28.9 mM, the Vmax came to 402 µM/min, the kcat turned out to be 36.7 s⁻¹ and the kcat/Km turned out to be 1270 M⁻¹ s⁻¹. Moreover, in “purified protein [3]”, the Km is recorded as 25.1 mM, the Vmax turned out to be 344 µM/min, the kcat came out at 31.3 s⁻¹ and the kcat/Km came out at 1250 M⁻¹ s⁻¹. In the data set “purified protein [4]”, the Michaelis-Menten constant (Km) is 45.6 mM, the Vmax was 710 µM/min, the kcat was found to be 64.6 s⁻¹ and the kcat/Km was found to be 1420 M⁻¹ s⁻¹.
